The assay concerns the target D-allulose 3-epimerase from Flavonifractor plautii (Flavonifractor plautii ATCC 29863). Briefly: SEC; gel filtration on Sephacryl S-300 HR 16/60; purified enzyme eluted with 50 mM Tris-HCl pH 7.5, 150 mM NaCl, 1 mL/min; calibrated with ferritin, catalase, aldolase and conalbumin. (In general: SEC sorts molecules by how far they enter the pores of the column.)

For “D-allulose 3-epimerase from Flavonifractor plautii (enzyme)”, the stoichiometry N (in general, the number of molecules, sites or subunits per partner or assembly) is 4.

These data come from article PMC4965175.
